From US5906819

Assays:
[1] = molecular target: T1, myosin light chain (chicken) (UniProt P02612)
T1 sequence: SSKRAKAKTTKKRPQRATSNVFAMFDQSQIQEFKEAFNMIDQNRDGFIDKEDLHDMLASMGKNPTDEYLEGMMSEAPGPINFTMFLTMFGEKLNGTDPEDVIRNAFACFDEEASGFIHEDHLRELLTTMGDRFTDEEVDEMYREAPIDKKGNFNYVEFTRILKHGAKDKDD

B1: GST-Rho-kinase (enzyme)
chain: PTGKMPGAPEAVSGDGAGASRQRKLEALIRDPRSPINVESLLDGLNPLVLDLDFPALRKNKNIDNFLNRYEKIVKKIRGLQMKAEDYDVVKVIGRGAFGEVQLVRHKASQKVYAMKLLSKFEMIKRSDSAFFWEERDIMAFANSPWVVQLFCAFQDDKYLYMVMEYMPGGDLVNLMSNYDVPEKWAKFYTAEVVLALDAIHSMGLIHRDVKPDNMLLDKHGHLKLADFGTCMKMDETGMVHCDTAVGTPDYISPEVLKSQGGDGYYGRECDWWSVGVFLFEMLVGDTPFYADSLVGTYSKIMDHKNSLCFPEDAEISKHAKNLICAFLTDREVRLGRNGVEEIKQHPFFKNDQWNWDNIRETAAPVVPELSSDIDSSNFDDIEDDKGDVETFPIPKAFVGNQLPFIGFTYYRENLLLSDSPSCKENDSIQSRKNEESQEIQKKLYTLEEHLSTEIQAKEELEQKCKSVNTRLEKVAKELEEEITLRKNVESTLRQLEREKALLQHKNAEYQRKADHEADKKRNLENDVNSLKDQLEDLKKRNQNSQIS
- apparent Km for myosin light chain [1]: 0.91 µM
- phosphorylation of intact myosin (mol phosphorylation per 1 mol myosin) (intact myosin (chicken)): 1
- specific activity with S6 peptide as a substrate (mol per minute per 1 mol GST-Rho-kinase) (S6 peptide): 41
